Tests used:
[1] = substrate: NC(=O)c1ccc[n+]([C@@H]2O[C@H](COP(=O)([O-])OP(=O)(O)OC[C@H]3O[C@@H](n4cnc5c(N)ncnc54)[C@H](O)[C@@H]3O)[C@@H](O)[C@H]2O)c1; assay: purified protein; settings: varied: cofactor
[2] = substrate: C[C@H](O)C(=O)O; assay: purified protein; settings: NAD+
[3] = substrate: CC(=O)c1ccc[n+]([C@@H]2O[C@H](COP(=O)([O-])OP(=O)(O)OC[C@H]3O[C@@H](n4cnc5c(N)ncnc54)[C@H](O)[C@@H]3O)[C@@H](O)[C@H]2O)c1; assay: enzyme kinetics (Km), used as synthetic cofactor, lactate to pyruvate; format: biochemical, Babesia orientalis; settings: varied: cofactor
From the text: enzyme kinetics (Km), used as synthetic cofactor, lactate to pyruvate on Babesia orientalis lactate dehydrogenase (BoLDH) | BoLDH catalyzes the conversion of lactate to pyruvate using synthetic APAD^+ instead of NAD^+ as a cofactor

[4] = substrate: NC(=O)C1=CN([C@@H]2O[C@H](COP(=O)(O)OP(=O)(O)OC[C@H]3O[C@@H](n4cnc5c(N)ncnc54)[C@H](O)[C@@H]3O)[C@@H](O)[C@H]2O)C=CC1; assay: purified protein; format: biochemical, Babesia orientalis; settings: varied: cofactor
[5] = substrate: CC(=O)C(=O)O; assay: purified protein; format: biochemical, Babesia orientalis; settings: NADH

B1: Babesia orientalis lactate dehydrogenase (BoLDH) (Babesia orientalis) (protein)
chain: MLKGFLSTMSPAVRRNKISLIGAGNIGGVMAYLAQLKELGDVVLFDIAPKLGEAKALDIMHANAIYDTAHKAIGTANYEDIADSDVCIITAGLAKLPNKKDEEWSRDDLVAPNSKIMFTIGDNIKKYAPNAFVICITNPLDVMVKMLLKATGFPKNKVVGMGGLLDSSRMCHYIADKLNVNPRYVHGSCIGGHGDSMIPLVNHVTVNGIPIQLFVERGDITQAELDKIAQRTIGSGMELVQLYGNGSAYFAPATAAIEMASAYLNDKKSVIVCSCYLEGEYGHSDVYLGTPAIIGANGIEKIITLKLSSEEQAKLDASVKEIMRLEALAG
notes: full-length ORF (330 residues), N-terminal His6 tag, recombinant rBoLDH
- Km [1]: 493 ± 69.2 µM
- kcat [1]: 21.5 s⁻¹
- kcat/Km [1]: 43600 M⁻¹ s⁻¹
- Km [2]: 166 ± 24.2 µM
- kcat [2]: 30.5 s⁻¹
- kcat/Km [2]: 184000 M⁻¹ s⁻¹
- Km [3]: 395 ± 49.9 µM
- kcat [3]: 62.3 s⁻¹
- kcat/Km [3]: 157000 M⁻¹ s⁻¹
- Km [4]: 126 ± 19.9 µM
- kcat [4]: 115 s⁻¹
- kcat/Km [4]: 913000 M⁻¹ s⁻¹
- Km [5]: 102 ± 19.2 µM
- kcat [5]: 56.5 s⁻¹
- kcat/Km [5]: 554000 M⁻¹ s⁻¹
